These results are taken from US20220031745A1.

Assay in all cases: quantitative flow cytometry, anti-myc staining of CD8+ T cells; ABC = number of receptors/cell; UnT T cells read ~350
Assay [1] has as its target low affinity anti-Her2 SynNotch receptor (4D5 variant LOW scFv, mouse Notch1 minimal regulatory region, Gal4 DBD VP64) (mouse) (UniProt Q01705).
Assay [2] deals with high affinity anti-Her2 CAR (4D5 variant HIGH scFv, CD8 transmembrane, 41BB, CD3zeta) (UniProt P01732).
For assay [3], the target named is low affinity anti-Her2 CAR (4D5 variant LOW scFv, CD8 transmembrane, 41BB, CD3zeta) (UniProt P01732).

Regarding Anti-myc Alexa-647 (antibody), the ABC (antibody binding capacity) in assay [1] was found to be 2550; in assay [2] it was 19000; in assay [3], 7600.
